Biological target: Recombinant human IL-18 (Peprotech 200-18) (human) (UniProt Q14116)
Test: cell-based or functional assay

Sequence of recombinant IL-18BP/Fc chimera (R&D Systems, 119-BP) (O95998 31-194, change not shown): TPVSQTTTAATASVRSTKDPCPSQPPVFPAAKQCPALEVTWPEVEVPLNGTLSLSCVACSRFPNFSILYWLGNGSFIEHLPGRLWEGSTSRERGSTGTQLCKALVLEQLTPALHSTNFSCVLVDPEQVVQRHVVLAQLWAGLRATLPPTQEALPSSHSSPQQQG
Sequence of Recombinant human IL-18 (Peprotech 200-18) (human) (Q14116 37-193 limits assumed): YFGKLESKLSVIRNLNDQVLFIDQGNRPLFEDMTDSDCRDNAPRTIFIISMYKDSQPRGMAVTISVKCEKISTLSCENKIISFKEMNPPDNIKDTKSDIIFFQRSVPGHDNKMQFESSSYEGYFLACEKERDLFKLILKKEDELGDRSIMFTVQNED

ED50, inhibition of INF-γ release by KG1 cells: 0.52 nM
Substance: recombinant IL-18BP/Fc chimera (R&D Systems, 119-BP) (from UniProt O95998 31-194) (Fc fusion)

Source: US20110014201A1
